Results: patent US20240132622A1 (Bristol-Myers Squibb, published 2024)

Experiments:
recombinant human PAD4 [1] = biological target: T1, recombinant human PAD4 (human, UniProt Q9UM07 1-663); assay: cell-based or functional assay
[2] = biological target: extracellular matrix (ECM) proteins; assay: ECM plate ELISA (Matrigel), 1 uM antibody, A450 over wells without sample
recombinant human PAD4 [3] = biological target: T1, recombinant human PAD4; assay: SPR 37 C, captured antibody, PAD4 analyte, 1 mM CaCl2
Procedure: Their binding to human PAD4 was measured by Surface Plasmon Resonance (SPR). SPR measurements were performed with a Biacore® 8K, 8K+, or T200 instrument (Cytiva). The association rate constants, kₒₙ, dissociation rate constants, koff, and equilibrium dissociation constants, KD, of the antibodies with PAD4 were determined from these SPR measurements.
(§1) For SPR measurements, either an anti-human capture surface or Protein A surface (Cytiva catalog #29127555) was used. Anti-human capture surface was prepared by immobilizing anti-human capture antibody (Cytiva catalog #29234600) onto flow cells of a CM5 or CM4 biosensor following the manufacturer's amine coupling protocol (Cytiva catalog #BR-1006-33). SPR experiments were conducted at 37° C. using HBS-P (150 mM NaCl, 10 mM HEPES, pH 7.6, 0.05% Tween-20) (TEKNOVA catalog #H8032) with additional 150 mM NaCl and 1 mM or 2 mM CaCl₂) (see Table 2) or 2 mM EDTA (see Table 3) as running buffer. Antibodies were diluted to 1.5 μg/mL in the running buffer, and were captured across active biosensor flow cells at 10 μL/min for 15 to 30 seconds. […] The association and dissociation of the antibodies with PAD4 were measured. One 30 second injection followed by one 15 second injection of 10 mM glycine pH 1.5 was used to regenerate the Protein A capture surface between assay cycles. For anti-human capture surface, two 30 second injections of 3 M MgCl₂ was used for regeneration. SPR measurements for mAb20 and mAb 13 SPR were done in the presence of 2 mM CaCl₂). The remaining antibodies were tested in the presence of 1 mM CaCl₂).
(§2) Rate constants kₒₙ and koff were derived from reference flow cell- and 0 nM blank-subtracted sensorgrams, and were fit to a 1:1 binding model in Biacore® Insight Evaluation software version 3.0.12.15655. Deviations from 1:1 binding model were observed, which may be caused by increased dimerization of PAD4 at higher concentrations. The equilibrium dissociation constant, KD, was calculated as the ratio of rate constants koff/kₒₙ for each PAD4 antibody.

recombinant human PAD4 [4] = biological target: T1, recombinant human PAD4; assay: SPR 37 C, captured antibody, PAD4 analyte, 2 mM EDTA
Procedure: as §1
as §2, with “antibody. For those antibodies that were tested in multiple SPR experiments, the average value and standard deviation from two or three separate experiments are listed in Tables 2 and 3.” for “antibody.”

recombinant human PAD4 [5] = biological target: T1, recombinant human PAD4; assay: cell-based or functional assay; remark: listed apart in the source
recombinant human PAD4 [6] = biological target: T1, recombinant human PAD4; assay: cell-based or functional assay; remark: listed apart in the source

T1 sequence (Q9UM07 whole entry): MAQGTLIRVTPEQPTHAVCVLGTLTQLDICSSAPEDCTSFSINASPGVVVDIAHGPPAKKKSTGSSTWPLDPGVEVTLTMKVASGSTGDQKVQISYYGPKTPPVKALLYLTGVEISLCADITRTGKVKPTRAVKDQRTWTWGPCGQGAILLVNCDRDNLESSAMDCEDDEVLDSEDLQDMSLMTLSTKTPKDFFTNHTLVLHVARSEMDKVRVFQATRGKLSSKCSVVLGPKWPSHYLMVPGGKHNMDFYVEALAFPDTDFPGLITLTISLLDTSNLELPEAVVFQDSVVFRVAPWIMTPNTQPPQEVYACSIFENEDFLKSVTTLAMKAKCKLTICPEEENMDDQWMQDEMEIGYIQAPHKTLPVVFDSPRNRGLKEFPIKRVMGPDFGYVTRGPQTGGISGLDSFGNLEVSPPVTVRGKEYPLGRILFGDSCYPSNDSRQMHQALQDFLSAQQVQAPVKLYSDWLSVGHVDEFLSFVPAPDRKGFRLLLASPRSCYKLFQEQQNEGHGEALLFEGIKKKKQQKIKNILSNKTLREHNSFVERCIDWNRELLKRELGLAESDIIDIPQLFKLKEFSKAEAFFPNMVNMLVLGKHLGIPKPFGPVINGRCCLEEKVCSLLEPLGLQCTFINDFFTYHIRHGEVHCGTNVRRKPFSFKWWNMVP

| Binder | IC50 (average), PAD4 citrullination of peptide …, RapidFire MS (recombinant human PAD4 [1]) | ECM Score (1 µM) [2] | Kd (recombinant human PAD4 [3]) | koff (recombinant human PAD4 [3]) | kon (recombinant human PAD4 [3]) | Kd (recombinant human PAD4 [4]) | koff (recombinant human PAD4 [4]) | kon (recombinant human PAD4 [4]) | other results |
| --- | --- | --- | --- | --- | --- | --- | --- | --- | --- |
| hz13-5 (antibody, IgG1, V domains shown, also called clone 13-based hz13-5 antibody; parent hz13-5) VH: EVLLVQSGAEVKKPGASVKLSCTSSDFNIKDHFIHWVRQAPGKGLEWMGRIDPEDDETKYAPKFQDRVTMTADTSTDTAYMELSSLRSEDTAVFYCAGYGNYEGAMDYWGQGTLVTVSS VL: DIQMTQSPSSLSASVGDRVTITCRASENVNNYGIGFMNWFQQKPGKAPKLLIYAASRRGSGVPSRFSGSGSGTDFTLTISSLQPEDFATYFCQQSKEVPYTFGQGTKVEIK | 48.2 nM | 1 | 0.1 nM | 0.00012 s⁻¹ | 1.6e+06 M⁻¹ s⁻¹ | 0.1 nM | 0.00021 s⁻¹ | 2.1e+06 M⁻¹ s⁻¹ | IC50, citrulline ELISA on peptide …, 13.5 nM rhPAD4 (recombinant human PAD4 [5]): 0.7 nM; IC50, citrulline ELISA on peptide …, 108 nM rhPAD4 (recombinant human PAD4 [5]): 5.02 nM |
| hz13-5 D31E (antibody, V domains shown, IgG1.3f; also called clone 13-based hz13-5 D31E) VH: EVLLVQSGAEVKKPGASVKLSCTSSDFNIKEHFIHWVRQAPGKGLEWMGRIDPEDDETKYAPKFQDRVTMTADTSTDTAYMELSSLRSEDTAVFYCAGYGNYEGAMDYWGQGTLVTVSS VL: DIQMTQSPSSLSASVGDRVTITCRASENVNNYGIGFMNWFQQKPGKAPKLLIYAASRRGSGVPSRFSGSGSGTDFTLTISSLQPEDFATYFCQQSKEVPYTFGQGTKVEIKR | – | – | 0.147 nM | 0.000171 s⁻¹ | 1.32e+06 M⁻¹ s⁻¹ | 0.306 nM | 0.000358 s⁻¹ | 1.17e+06 M⁻¹ s⁻¹ | mean IC50, PAD4 driven H3 citrullination (ELISA), 13.5 nM PAD4, with 100 ug/ml purified IgG of NHV sera (n=6) (recombinant human PAD4 [5]): 9 nM; mean IC50, PAD4 driven H3 citrullination (ELISA), 13.5 nM PAD4, with 100 ug/ml purified IgG of RA sera (n=21) (recombinant human PAD4 [5]): 8.2 nM; IC50 run 1, citrulline ELISA on peptide …, 13.5 nM rhPAD4 (recombinant human PAD4 [6]): 0.34 nM; IC50 run 1, citrulline ELISA on peptide …, 27 nM rhPAD4 (recombinant human PAD4 [6]): 1.77 nM; IC50 run 1, citrulline ELISA on peptide …, 54 nM rhPAD4 (recombinant human PAD4 [6]): 3.13 nM; IC50 run 1, citrulline ELISA on peptide …, 108 nM rhPAD4 (recombinant human PAD4 [6]): 6.03 nM; IC50 run 2, citrulline ELISA on peptide …, 13.5 nM rhPAD4 (recombinant human PAD4 [6]): 0.73 nM; IC50 run 2, citrulline ELISA on peptide …, 27 nM rhPAD4 (recombinant human PAD4 [6]): 1.26 nM; IC50 run 2, citrulline ELISA on peptide …, 54 nM rhPAD4 (recombinant human PAD4 [6]): 3.14 nM; IC50 run 2, citrulline ELISA on peptide …, 108 nM rhPAD4 (recombinant human PAD4 [6]): 4.29 nM; IC50 run 3, citrulline ELISA on peptide …, 13.5 nM rhPAD4 (recombinant human PAD4 [6]): 0.37 nM; IC50 run 3, citrulline ELISA on peptide …, 27 nM rhPAD4 (recombinant human PAD4 [6]): 0.89 nM; IC50 run 3, citrulline ELISA on peptide …, 54 nM rhPAD4 (recombinant human PAD4 [6]): 2.68 nM; IC50 run 3, citrulline ELISA on peptide …, 108 nM rhPAD4 (recombinant human PAD4 [6]): 4.65 nM |
| hz13-3 (antibody, V domains shown, light constant region not tied to this antibody) VH: EVQLVQSGAEVKKPGASVKVSCTSSDFNIKDHFIHWVRQAPGKGLEWMGRIDPEDDETKYAPKFQDRVTMTADTSTDTAYMELSSLRSEDTAVYYCAGYGNYEGAMDYWGQGTLVTVSS VL: DIVMTQSPSSLSASVGDRVTLTCRASENVNNYGIGFMNWFQQKPGKAPKLLIYAASRRGSGVPSRFSGSGSGTDFTLTISSMQPEDFATYFCQQSKEVPYTFGQGTKLEIK | 23.3 nM | 1 | 0.1 nM | 0.00013 s⁻¹ | 1.5e+06 M⁻¹ s⁻¹ | 0.1 nM | 0.00021 s⁻¹ | 1.9e+06 M⁻¹ s⁻¹ | – |
| hz13-2 (antibody, V domains shown, light constant region not tied to this antibody) VH: EVQLVQSGAEVKKPGASVKVSCTSSDFNIKDHFIHWVRQAPGKGLEWMGRIDPEDDETKYAPKFQDRVTMTADTSTDTAYMELSSLRSEDTAVYYCAGYGNYEGAMDYWGQGTLVTVSS VL: DIQMTQSPSSLSASVGDRVTITCRASENVNNYGIGFMNWFQQKPGKAPKLLIYAASRRGSGVPSRFSGSGSGTDFTLTISSLQPEDFATYFCQQSKEVPYTFGQGTKVEIK | 96.4 nM | 1 | 0.1 nM | 0.00012 s⁻¹ | 1.7e+06 M⁻¹ s⁻¹ | 0.1 nM | 0.00025 s⁻¹ | 2e+06 M⁻¹ s⁻¹ | – |
| hz13-4 (antibody, V domains shown, light constant region not tied to this antibody) VH: EVLLVQSGAEVKKPGASVKLSCTSSDFNIKDHFIHWVRQAPGKGLEWMGRIDPEDDETKYAPKFQDRVTMTADTSTDTAYMELSSLRSEDTAVFYCAGYGNYEGAMDYWGQGTLVTVSS VL: DIQMTQSPSSLSASVGDRVTITCRASENVNNYGIGFMNWYQQKPGKAPKLLIYAASRRGSGVPSRFSGSGSGTDFTLTISSLQPEDFATYYCQQSKEVPYTFGQGTKVEIK | 115 nM | 1 | 0.1 nM | 0.00013 s⁻¹ | 930000 M⁻¹ s⁻¹ | 0.2 nM | 0.00032 s⁻¹ | 1.4e+06 M⁻¹ s⁻¹ | – |

Second part, led by results:

| IC50 (average), PAD4 citrullination of peptide …, RapidFire MS (recombinant human PAD4 [1]) | ECM Score (1 µM) [2] | Kd (recombinant human PAD4 [3]) | koff (recombinant human PAD4 [3]) | kon (recombinant human PAD4 [3]) | Kd (recombinant human PAD4 [4]) | koff (recombinant human PAD4 [4]) | kon (recombinant human PAD4 [4]) | Binder | other results |
| --- | --- | --- | --- | --- | --- | --- | --- | --- | --- |
| 76 nM | 2 | 0.1 nM | 0.00016 s⁻¹ | 2e+06 M⁻¹ s⁻¹ | 0.1 nM | 0.00019 s⁻¹ | 2e+06 M⁻¹ s⁻¹ | hz13-9 (antibody, V domains shown, light constant region not tied to this antibody) VH: EVLLVQSGAEVKKPGASVKLSCTSSDFNIKDHFIHWVRQAPGKGLEWIGRIDPEDDETKYAPKFQDRVTITADTSTDTAYLELSSLRSEDTAVFYCAGYGNYEGAMDYWGQGTLVTVSS VL: DIVMTQSPSSLSASVGDRVTLTCRASENVNNYGIGFMNWFQQKPGKAPKLLIYAASRRGSGVPSRFSGSGSGTDFTLTISSMQPEDFATYFCQQSKEVPYTFGQGTKLEIK | – |
| 39.1 nM | 1 | 0.1 nM | 0.00012 s⁻¹ | 1.6e+06 M⁻¹ s⁻¹ | 0.1 nM | 0.00023 s⁻¹ | 1.7e+06 M⁻¹ s⁻¹ | hz13-6 (antibody, V domains shown, light constant region not tied to this antibody) VH: EVLLVQSGAEVKKPGASVKLSCTSSDFNIKDHFIHWVRQAPGKGLEWMGRIDPEDDETKYAPKFQDRVTMTADTSTDTAYMELSSLRSEDTAVFYCAGYGNYEGAMDYWGQGTLVTVSS VL: DIVMTQSPSSLSASVGDRVTLTCRASENVNNYGIGFMNWFQQKPGKAPKLLIYAASRRGSGVPSRFSGSGSGTDFTLTISSMQPEDFATYFCQQSKEVPYTFGQGTKLEIK | – |
| 170 nM | 1 | 0.1 nM | 0.00015 s⁻¹ | 1.2e+06 M⁻¹ s⁻¹ | 0.1 nM | 0.00025 s⁻¹ | 2e+06 M⁻¹ s⁻¹ | hz13-7 (antibody, V domains shown, light constant region not tied to this antibody) VH: EVLLVQSGAEVKKPGASVKLSCTSSDFNIKDHFIHWVRQAPGKGLEWIGRIDPEDDETKYAPKFQDRVTITADTSTDTAYLELSSLRSEDTAVFYCAGYGNYEGAMDYWGQGTLVTVSS VL: DIQMTQSPSSLSASVGDRVTITCRASENVNNYGIGFMNWYQQKPGKAPKLLIYAASRRGSGVPSRFSGSGSGTDFTLTISSLQPEDFATYYCQQSKEVPYTFGQGTKVEIK | – |
| 62.8 nM | 2 | 0.1 nM | 0.00014 s⁻¹ | 1.7e+06 M⁻¹ s⁻¹ | 0.1 nM | 0.00016 s⁻¹ | 1.9e+06 M⁻¹ s⁻¹ | hz13-8 (antibody, V domains shown, light constant region not tied to this antibody) VH: EVLLVQSGAEVKKPGASVKLSCTSSDFNIKDHFIHWVRQAPGKGLEWIGRIDPEDDETKYAPKFQDRVTITADTSTDTAYLELSSLRSEDTAVFYCAGYGNYEGAMDYWGQGTLVTVSS VL: DIQMTQSPSSLSASVGDRVTITCRASENVNNYGIGFMNWFQQKPGKAPKLLIYAASRRGSGVPSRFSGSGSGTDFTLTISSLQPEDFATYFCQQSKEVPYTFGQGTKVEIK | – |
